{
  "source": "patent US20210210159A1",
  "about": "“COMPUTATIONAL PROTEIN DESIGN USING TERTIARY OR QUATERNARY STRUCTURAL MOTIFS” (Trustees of Dartmouth College, priority 2018, published 2021)",
  "molecules": {"B1": {"name": "design: TERM-based surface-redesigned mCherry, 48 of 64 variable surface positions changed (SEQ ID NO. 2) (protein)", "chain": "MVSKGEEDNMAIIKEFMTFEVEMEGTVNGHPFRIRGSGGGDPYEGTQTARLEVVEGGPLPFAWDILSPQFMYGSKAYVKHPADIPDYLKLSFPEGFTWTRTMEFEDGGTVKVTQTSTLKDGKFHYKVKLTGSNFPSDGPVMQKKTMGWEASTERMRPKDGKLEGEIDQELRLKDGGYYRARVRTTYKAKKPVQLPGAYTVRIRLEITSHNEDYTEVEQTETAKGEHSTGGMDELYK", "modifications": "TERM-based designed sequence"}},
  "key": {"[1]": {"test": "Fast Protein Liquid Chromatography / size-exclusion chromatography, oligomeric state", "assay_type": "physicochemical", "details": "concentration of at least 10 μM", "excerpt": "Based on the standards, the dimeric protein would be expected to elute at the volume indicated by a dotted line, which eliminates the possibility of design oligomerization."}, "[2]": {"test": "Chemical denaturation by guanidinium hydrochloride (GuHCl), chromophore absorbance at 587 nm", "assay_type": "physicochemical", "details": "compared with original mCherry", "excerpt": "Degree of foldedness was monitored via chromophore absorbance at 587 nm. Because the chromophore rapidly […], this constitutes a sensitive metric of structure. Data are fit to the Hill equation, with the concentration of half denaturation noted in the legend.\nThus, by all measures, the designed protein, which differs from the original mCherry in 48 positions, preserved the starting structure and even function."}},
  "data": [
    {"molecule": "B1", "values": [
      {"measurement": "oligomeric state in solution", "setting": "[1]", "value": "monomeric"},
      {"measurement": "protection of chromophore on chemical denaturation", "setting": "[2]", "value": "approximately as well as the original mCherry"}
    ]}
  ]
}
